One series relates to VWF. In words: Pharmacodynamic profile: ristocetin cofactor activity assay (% RICO) after i.v. administration. In kind it is in vivo, Cynomolgus monkey. How it is done:
For the constructs used in Example 14, pharmacodynamic characteristics upon compound administration were measured by means of a ristocetin cofactor activity assay (Biopool). The ristocetin cofactor activity is a functional assay for VWF, measuring the capacity of VWF to interact with the platelet receptor glycoprotein Ib using ristocetin as a modulator.
For pharmacodynamic data analysis, descriptive statistics (mean and SD) were calculated per dose group and per sampling time point using Microsoft Excel 2007. Response parameters and associated statistics for the overall time course were calculated by noncompartmental analysis of the response-time data using WinNonlin Pro 5.1 (Pharsight Corporation, USA; 2006). The non-compartmental analysis was based on a model for pharmacodynamic data (Model 220). The threshold value was set at 20% based on extensive historical PK/PD data on the vWF-0001 compound. Preclinical studies have shown that a complete inhibition of the pharmacodynamic marker are correlated with full antithrombotic efficacy. The following main pharmacodynamic parameters were determined: time below the threshold (Time below T), area under the threshold (AUC below T), time at which the % RICO first drops below the threshold (Tonset), and time at which the % RICO first returns back above the threshold (Toffset).

In series [1] the test system is platelet adhesion to fibrillar collagen. In words: Perfusion experiments: platelet adhesion to collagen at arterial shear rate. It is filed as cell-based, human. On the procedure: The perfusion experiments were performed with a single-pass perfusion chamber under non-pulsatile flow conditions using a modified small perfusion chamber with a slit height of 0.1 mm and a slit width of 2 mm. […] Citrated human blood was preincubated at 37° C. for 5 min with or without addition of test compound, and then perfused through the chamber for 5 min at a wall shear rate of 1600 s^−1 using an infusion/withdrawal pump (pump 22, model 2400-004, Harvard Apparatus, Holliston, Mass.). After the perfusion run, the coverslips were rinsed in Hepes buffered saline (10 mM Hepes, 150 mM NaCl, pH 7.4) and platelets were fixed with 5% glutaraldehyde and stained with May-Grünwald and Giemsa. Platelet deposition of the coverslip was evaluated as platelet surface coverage of 10 randomly chosen pictures using light microscopy (Olympus BX61 microscope using Analysis Five digital imaging solutions analysis software).

For series [2] the following is noted: cynomolgus monkey, in vivo. How it is done: The pharmacokinetic profile of the constructs was analyzed in male cynomolgus monkeys of approximately 3 to 4 years old and was compared to the reference (SEQ ID NO:165). The constructs and the control were each injected in three monkeys at a dose of 2 mg/kg via an intravenous bolus injection. Blood samples were taken at predose, 5 min, 20 min, 1 h, 2 h, 4 h, 8 h (test day 1) after administration and at test days 2, 3, 5, 7, 9, 12, 15, 18, 21, 24, 27, 30, 33. In order to obtain at least 1 mL plasma per animal per sampling time, a sufficient volume of whole blood was withdrawn per sampling time. Plasma was collected after whole blood centrifugation for 30 minutes at 2200 g at room temperature (RT). The plasma samples were stored at −80° C. until analysis.
For bioanalytical determination of constructs and control article in monkey plasma, plasma samples were tested for levels of constructs and the control using ELISA based PK assays. The detection of control and constructs in the ELISA assays is based on the binding of these Nanobodies with vWF and the assay set-ups are as such that total vWF-binding Nanobody is detected.
For the reference (SEQ ID NO:165) and the construct of SEQ ID NO:167, 96-well microtiter plates (Maxisorp, Nunc, Wiesbaden, Germany) were coated overnight at 4° C. with neutravidin (Pierce) in 10:10 buffer at 3 μg/ml. Wells were aspirated and blocked for 1 hour at RT with PBS/1% casein. After this blocking step, wells were washed with PBS/0.05% Tween20. A biotinylated bivalent Nanobody against the constructs was added to the neutravidin coated plate at 2 μg/ml in PBS/0.1% casein and incubated for 1 hour at RT. After the incubation step of this capture tool, wells were washed 3 times with PBS/0.05% Tween20.
Preparations of the standards, QC samples and dilutions of the test samples were performed in a non-coated (polypropylene) plate. For the standard curve and QC-samples, solutions at the required concentrations were prepared in PBS/0.1% casein and spiked into 100% monkey plasma. To prepare standards and QC samples, a 1/100 dilution of the pure monkey plasma dilutions was made in IgM-Reducing Agent (Immunochemistry Technologies, Bloomington, USA) supplemented with 2.5% pooled human plasma (referred to as sample diluent). For the test samples, dilution factors for the test samples were estimated, and ranged between 1/100 to 1/9000 for the reference of SEQ ID NO:165 tests and between 1/100 and 12000 for the construct of SEQ ID NO: 167. Samples were diluted 1/100 in sample diluent in a first step, and if needed, further dilution was done in sample diluent supplemented with 1% cynomolgus plasma.
Standards, QC samples and diluted test samples were transferred onto the coated plate and incubated for 1 hour at RT. Afterwards the plates were washed followed by a complexation step with purified vWF (ZLB Behring). vWF diluted to 2.5 μg/ml for the assay for the reference of SEQ ID NO:165 and to 3 μg/ml for the assay for the construct of SEQ ID NO: 167 in PBS/0.1% casein was incubated on the plates for 30 minutes at RT. Plates were washed and Nanobody/vWF complexes bound to the capture tool detected with Rabbit anti-human vWF Ab (Dako, Denmark), diluted 1/2000 in PBS/0.1% casein and incubated for 30 minutes at RT. After washing, a 1/15000 dilution in PBS/0.1% casein of Horse-Radish-Peroxidase labelled goat anti-rabbit Ab (Dako, Denmark) was added to the plate and incubated for 30 minutes at RT. The enzyme coupled to the Ab catalyzes a chemical reaction with the substrate sTMB (3,3′,5,5′-tetramethylbenzidine, SDT reagents, Brussels, Belgium), resulting in a colorimetric change. After stopping this reaction after 10 minutes using HC1 (1N), the intensity of the colour was measured using a spectrophotometer at 450 nm. […]

In another series the target is cynoSA (Macaca fascicularis, UniProt A2V9Z4). In words: Biacore analysis of pH dependency of binding. The arrangement: species or system cynomolgus monkey. How it is done: (§1) The pH dependent binding of vWF0055 on HSA and cynoSA was investigated by surface plasmon resonance using a Biacore 3000 instrument by assessing the affinity at three different pH's. In brief, HSA and cynoSA were amine-coupled to a separate CM5 sensor chip at a density of respectively 1800RU and 1900RU. Diluted samples, ranging in concentration between 25 nM to 1 μM vW0055 were prepared in three buffers. The three buffers used contained 50 mM phosphate, 150 mM NaCl and 0.005% surfactant P and were adjusted to either pH5, pH7 or pH8. Samples were injected at a flow-rate of 45 μL/min, association and dissociation were monitored during 120 sec and 300 sec. Binding curves were subsequently used to calculate the KD, association- and dissociation-rate constants with the BiaEvaluation software.
cynoSA, sequence (A2V9Z4 25-608): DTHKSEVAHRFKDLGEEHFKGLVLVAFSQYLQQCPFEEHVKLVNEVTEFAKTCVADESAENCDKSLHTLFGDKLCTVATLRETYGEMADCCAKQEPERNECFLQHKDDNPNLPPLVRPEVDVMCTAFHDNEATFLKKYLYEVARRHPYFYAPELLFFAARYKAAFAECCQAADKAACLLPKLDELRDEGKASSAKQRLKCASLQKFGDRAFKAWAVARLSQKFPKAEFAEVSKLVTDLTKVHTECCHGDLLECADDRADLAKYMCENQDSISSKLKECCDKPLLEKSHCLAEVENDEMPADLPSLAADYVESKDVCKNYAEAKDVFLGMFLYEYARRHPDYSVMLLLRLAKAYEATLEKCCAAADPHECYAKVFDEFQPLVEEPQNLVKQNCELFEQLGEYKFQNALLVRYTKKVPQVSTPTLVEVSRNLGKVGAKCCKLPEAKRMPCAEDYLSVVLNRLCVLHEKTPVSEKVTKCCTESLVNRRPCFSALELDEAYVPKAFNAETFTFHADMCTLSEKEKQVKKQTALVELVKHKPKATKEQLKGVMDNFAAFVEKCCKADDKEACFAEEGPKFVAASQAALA
(In general: SPR reads the build-up and loss of mass on a sensor chip optically.)

Series [3] in a line: Chemical stability on storage at 37° C., RP-HPLC. Particulars: 4 weeks incubation at 37° C. in D-PBS. In kind it is physicochemical. On the procedure: To evaluate the chemical stability of vWF0055, the Nanobody® vWF0055 was stored at 37° C. After 1, 2 and 4 weeks a sample was taken and analyzed for chemical or proteolytic modifications via RP-HPLC (Zorbax 300SB-C3, 4.6×150 mm (5 μm); trifluoroacetic acid/acetonitrile).

The target in another series is HSA (Homo sapiens, UniProt P02768). In words: Biacore analysis of pH dependency of binding. How it is done: as §1
[4] abbreviates: threshold 20% RICO, i.v. bolus 2 mg/kg, male Cynomolgus monkey, mean n = 3.

B1: 12A2_sv1-AAA-12A2_sv1-9GS-59C2 (protein)
chain: DVQLVESGGGLVQPGGSLRLSCAASGRTFSYNPMGWFRQAPGKGRELVAAISRTGGSTYYPESVEGRFTISRDNAKRTVYLQMNSLRAEDTAVYYCAAAGVRAEQGRVRTLPSEYTFWGQGTQVTVSSAAAEVQLVESGGGLVQPGGSLRLSCAASGRTFSYNPMGWFRQAPGKGRELVAAISRTGGSTYYPESVEGRFTISRDNAKRTVYLQMNSLRAEDTAVYYCAAAGVRAEQGRVRTLPSEYTFWGQGTQVTVSSGGGGSGGGSRDWDFDVFGGGTPVGG
Regarding B1, the “Tonset values” in the series on VWF (estimated, i.v. application) is approximately 5 min. In the series with VWF (i.v. bolus), the “mean AUC under the threshold increase relative to vWF0001” value stood at 118 fold and the “time below the threshold increase relative to vWF0001” value worked out at 105 fold. In the series with VWF (setting [4]), the “AUC below T” value is on record as 781 % RICO * h and the “Time below T” value turned out to be 127 h. For the same molecule, the Tonset with VWF (time % RICO first drops below threshold, i.v. bolus 2 mg/kg) is given as 0.074 h. In the series with VWF (time % RICO first returns above threshold, i.v. bolus 2 mg/kg), this molecule yielded a Toffset of 127 h. The “Effective concentration compared to VWF0001” value in series [1] (FIG. 12) is recorded as “similar”. In addition, the “inhibition of platelet adhesion to fibrillar collagen at arterial shear rate” value in series [1] (citrated human blood, wall shear rate 1600 s^−1, FIG. 12) was “dose-dependently and completely inhibit”. In series [2], the “Vdss lower relative to vWF0001” value is on record as 11 fold, the “dominant half-life (t½ dominant) increase relative to vWF0001” value is 85 fold and the “mean CL decrease compared to the control” value came out at 26 fold. Besides, in series [2] (iv, 2 mg/kg), the AUCinf stood at 1590 µg·h/mL and the C0 turned out to be 46500 ng/mL. Moreover, the “decrease of affinity at pH5” value in the series with cynoSA (pH5) is “about 10 fold”. Besides, the “pH at which the highest affinity was observed” value in the series with cynoSA (pH5, pH7 or pH8 tested) came to 7. Further, the “chemical modifications or proteolytic degradation” value in series [3] was “neither chemical modifications nor proteolytic degradation occurred”. Further, the “decrease of affinity at pH5” value in the series with HSA (pH5) is recorded as “about 10 fold”. For the same molecule, the “pH at which the highest affinity was observed” value with HSA (pH5, pH7 or pH8 tested) is reported as 7.

These data come from patent US8217140B2, “Peptides capable of binding to serum proteins and compounds, constructs and polypeptides comprising the same” (Ablynx N.V., priority 2008, dated 2012).
